Test [1] concerns the target Myotoxin II, biotinylated (Bothrops asper) (UniProt P24605). The test can be described thus: BLI; […]) biosensors; […]; dissociation for 600 s in HEPES-MES pH 5.0; 25°C; 1:1 binding model, […]. For orientation: Biolayer interferometry detects binding as a change in optical thickness at a sensor tip.
Test [2] has the same target. The test can be described thus: BLI; […]) biosensors; […]; association in HEPES-MES pH 7.4 for 300 s, dissociation in HEPES-MES pH 7.4 for 600 s; 1:1 binding model, […].
Test [3] shares this target. The test can be described thus: BLI; […]) biosensors; […]; dissociation for 600 s in HEPES-MES pH 6.0; 25°C; 1:1 binding model, […].
Test [4] shares this target. The test can be described thus: BLI; […]) biosensors; […]; association in HEPES-MES pH 7.4 for 300 s, dissociation in HEPES-MES pH 5.5 for 600 s; 1:1 binding model, […].
Test [5] has the same target. Description: BLI; […]) biosensors; […]; dissociation for 600 s in HEPES-MES pH 4.0; 25°C; 1:1 binding model, […].
The target is the same in test [6]. Description: BLI; […]) biosensors; […]; dissociation for 600 s in HEPES-MES pH 5.5; 25°C; 1:1 binding model, […].
Test [7] has the same target. Description: BLI; […]) biosensors; […]; dissociation for 600 s in HEPES-MES pH 3.5; 25°C; 1:1 binding model, […].
The target is the same in test [8]. Description: BLI; […]) biosensors; […]; dissociation for 600 s in HEPES-MES pH 4.5; 25°C; 1:1 binding model, […].
Test [9] shares this target. The test can be described thus: BLI; […]) biosensors; […]; dissociation for 600 s in HEPES-MES pH 6.5; 25°C; 1:1 binding model, […].

Chain of Myotoxin II, biotinylated (Bothrops asper) (P24605 17-137): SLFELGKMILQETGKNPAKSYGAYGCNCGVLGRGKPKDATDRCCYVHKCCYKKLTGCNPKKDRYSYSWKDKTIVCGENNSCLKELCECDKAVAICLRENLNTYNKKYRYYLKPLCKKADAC

B1: TPL0039_05_A03 Fab (Fab, V domains shown)
VH: QVQLVESGGGLAKPGRSLRLSCAVSGFTFSSYGMHWVRQAPGKGLEWVAVISYDGSNKYYADSVKGRFTISRDNSKNTLYLQMNSLRAEDTAVYYCASTLQQLDAFDIWGQGTMVTVSS
VL: NFMLTQPHSVSESPGKTITISCTRSSGSIASNYVQWYQQRPGSVPTPVIYEDDRRPSGVPDRFSGSIDSSSNSASLTISGLKTEDEADYYCQSYDSSSVVFGGGTKITVL
Take B1: the off-rate (koff) in test [1] was 0.0016 s⁻¹; in test [2], 0.00031 s⁻¹; in test [3], 0.00069 s⁻¹; in test [4], 0.0011 s⁻¹; in test [5], 0.01 s⁻¹; in [6], 0.0012 s⁻¹. Moreover, the koff stood at 0.059 s⁻¹ in test [7], 0.0038 s⁻¹ in [8] and 0.00058 s⁻¹ in [9]. The Kd in [2] is 1.5 nM; in test [4], 6.04 nM. Further, the kon in test [2] amounted to 200000 M⁻¹ s⁻¹; in test [4], 180000 M⁻¹ s⁻¹.

The koff is the first-order rate constant of dissociation. Lower therefore signals slow dissociation. In general, Kd refers to the constant that tells how readily two partners part at equilibrium. A lower Kd goes with a tighter complex. In general, kon refers to the rate constant with which the complex forms. A high value points to fast association.

The record behind these values is PMC11385703.
